From PMC4676636, “Aptamers Binding to c-Met Inhibiting Tumor Cell Migration”

Key:
[1] = molecular target: T1, human c-Met-Fc (c-Met ectodomain, IgG1-Fc fusion) (Homo sapiens, UniProt P08581 25-932); test: competition; vs 32P-CLN3-T; Dotblot: nitrocellulose filter, 37 C (competition, 30 min); BLI: DPBS, 37 C, Protein A tips, 1:1 fit; ELISA: PBS/1% BSA; flow cytometry: PBS/1% BSA, 4 C, 30 min; conditions: protein: recombinant; tags: Fc (IgG1); chain copies: 2
[2] = molecular target: T1, human c-Met-Fc (c-Met ectodomain, …); test: competition; vs 32P-CLN64-T; Dotblot: nitrocellulose filter, 37 C (competition, 30 min); BLI: DPBS, 37 C, Protein A tips, 1:1 fit; ELISA: PBS/1% BSA; flow cytometry: PBS/1% BSA, 4 C, 30 min; conditions: protein: recombinant; tags: Fc (IgG1); chain copies: 2; 3'-biotin (CLN-F-B, cells)
[3] = molecular target: T1, human c-Met-Fc (c-Met ectodomain, …); test: filter binding (dotblot); Dotblot: nitrocellulose filter, 37 C (competition, 30 min); BLI: DPBS, 37 C, Protein A tips, 1:1 fit; ELISA: PBS/1% BSA; flow cytometry: PBS/1% BSA, 4 C, 30 min; conditions: protein: recombinant; tags: Fc (IgG1); chain copies: 2; label: 32P (dotblot)
[4] = molecular target: T1, human c-Met-Fc (c-Met ectodomain, …); test: competition ELISA; competes with immobilized HGF; Fig 2 legend gives 72 nM; Dotblot: nitrocellulose filter, 37 C (competition, 30 min); BLI: DPBS, 37 C, Protein A tips, 1:1 fit; ELISA: PBS/1% BSA; flow cytometry: PBS/1% BSA, 4 C, 30 min; conditions: protein: recombinant; tags: Fc (IgG1); chain copies: 2; label: 32P (dotblot)

T1 sequence (P08581 25-932): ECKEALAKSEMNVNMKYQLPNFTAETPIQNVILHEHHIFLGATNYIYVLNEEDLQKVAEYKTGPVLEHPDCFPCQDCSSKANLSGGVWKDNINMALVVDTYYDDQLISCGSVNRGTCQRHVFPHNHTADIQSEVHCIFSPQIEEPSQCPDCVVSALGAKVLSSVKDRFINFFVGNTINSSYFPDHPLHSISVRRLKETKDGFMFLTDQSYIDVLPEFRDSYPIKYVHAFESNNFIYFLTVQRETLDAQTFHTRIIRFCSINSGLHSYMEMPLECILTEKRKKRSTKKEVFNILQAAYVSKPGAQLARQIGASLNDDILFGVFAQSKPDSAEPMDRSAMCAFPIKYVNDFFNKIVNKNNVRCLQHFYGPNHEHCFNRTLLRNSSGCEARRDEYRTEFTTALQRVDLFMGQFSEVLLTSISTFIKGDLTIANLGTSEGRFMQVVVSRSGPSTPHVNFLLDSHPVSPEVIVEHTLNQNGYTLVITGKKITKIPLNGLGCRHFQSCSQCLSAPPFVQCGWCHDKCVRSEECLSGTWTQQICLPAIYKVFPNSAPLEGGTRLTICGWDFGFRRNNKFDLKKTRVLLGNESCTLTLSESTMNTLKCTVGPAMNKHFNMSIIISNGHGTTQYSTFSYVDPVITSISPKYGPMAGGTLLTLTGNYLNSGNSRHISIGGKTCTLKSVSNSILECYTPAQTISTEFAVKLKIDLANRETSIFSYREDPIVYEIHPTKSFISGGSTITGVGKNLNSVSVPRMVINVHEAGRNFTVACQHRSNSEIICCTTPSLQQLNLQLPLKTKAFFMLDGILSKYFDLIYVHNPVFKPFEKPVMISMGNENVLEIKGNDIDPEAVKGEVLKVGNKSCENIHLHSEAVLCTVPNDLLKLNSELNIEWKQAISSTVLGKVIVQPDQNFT

B1: CLN-X (ssDNA)
DNA: GGAGGGAAAAGTTATCAGGCATGCGCTAGCCGATCGAATCCCGTAGACATTCCGATCGACGATTAGTTTTGGAGTACTCGCTCC
[1]
  binding result: no binding

B2: CLN-F (XNA)
DNA: GGAGGGAAAAGTTATCAGGCCGCTAGTTACCAGGTGTAGCTGACCAAGCGGATGTGTGTTGATTAGTTTTGGAGTACTCGCTCC
modifications: 2'-O-methyl purines and 2'-fluoro pyrimidines (mRfY)
[2]
  binding result: no binding

B3: CLN3-T (SL1) (ssDNA)
DNA: GAAAAGTTATCAGGCTGGATGGTAGCTCGGTCGGGGTGGGTGGGTTGGCAAGTCTGATT
[3]
  Kd: 0.1 nM
[4]
  IC50: 74 nM
